In assay [1] the target is integrin αVβ6 ectodomain (human) (human, UniProt P06756-1;P18564-1). Briefly: fluorescence polarisation.
Assay [2] addresses integrin αVβ8 ectodomain (human) (human, UniProt P06756-1;P26012-1). Briefly: fluorescence polarisation.

No end group written: not given here. *: point of attachment. FITC = O=C1OC2(c3ccc(O)cc3Oc3cc(O)ccc32)c2ccc(NC(=S)*)cc21; Ahx = NCCCCCC(=O)O

Sequence of integrin αVβ6 ectodomain (human) (P06756 31-992, chain 1 of 2): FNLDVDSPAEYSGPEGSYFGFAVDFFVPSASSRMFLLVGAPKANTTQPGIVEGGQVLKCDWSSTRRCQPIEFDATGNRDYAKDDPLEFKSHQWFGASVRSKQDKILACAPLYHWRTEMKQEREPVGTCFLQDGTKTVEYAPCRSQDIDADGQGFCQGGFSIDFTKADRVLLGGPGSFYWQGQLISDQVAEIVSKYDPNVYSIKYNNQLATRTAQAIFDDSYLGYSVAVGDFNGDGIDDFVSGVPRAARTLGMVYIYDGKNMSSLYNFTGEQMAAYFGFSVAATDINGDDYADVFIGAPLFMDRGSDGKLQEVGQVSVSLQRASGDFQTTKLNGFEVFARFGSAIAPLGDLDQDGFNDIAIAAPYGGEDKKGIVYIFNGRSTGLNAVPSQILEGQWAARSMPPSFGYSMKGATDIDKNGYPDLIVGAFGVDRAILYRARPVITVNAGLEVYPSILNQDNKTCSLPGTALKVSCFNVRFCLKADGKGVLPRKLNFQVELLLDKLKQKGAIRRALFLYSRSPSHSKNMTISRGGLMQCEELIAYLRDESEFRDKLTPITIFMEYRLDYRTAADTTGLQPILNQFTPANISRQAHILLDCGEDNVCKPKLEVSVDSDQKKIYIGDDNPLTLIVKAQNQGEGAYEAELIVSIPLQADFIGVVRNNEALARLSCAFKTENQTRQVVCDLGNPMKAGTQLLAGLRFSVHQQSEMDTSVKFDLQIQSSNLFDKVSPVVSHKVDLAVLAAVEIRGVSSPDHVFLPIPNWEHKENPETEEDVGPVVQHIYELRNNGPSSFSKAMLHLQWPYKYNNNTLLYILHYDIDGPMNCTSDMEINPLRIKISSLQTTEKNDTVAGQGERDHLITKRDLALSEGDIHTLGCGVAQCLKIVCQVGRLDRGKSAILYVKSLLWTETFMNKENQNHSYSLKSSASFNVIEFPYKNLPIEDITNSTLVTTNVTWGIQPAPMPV
Sequence of integrin αVβ6 ectodomain (human) (P18564 22-709, chain 2 of 2): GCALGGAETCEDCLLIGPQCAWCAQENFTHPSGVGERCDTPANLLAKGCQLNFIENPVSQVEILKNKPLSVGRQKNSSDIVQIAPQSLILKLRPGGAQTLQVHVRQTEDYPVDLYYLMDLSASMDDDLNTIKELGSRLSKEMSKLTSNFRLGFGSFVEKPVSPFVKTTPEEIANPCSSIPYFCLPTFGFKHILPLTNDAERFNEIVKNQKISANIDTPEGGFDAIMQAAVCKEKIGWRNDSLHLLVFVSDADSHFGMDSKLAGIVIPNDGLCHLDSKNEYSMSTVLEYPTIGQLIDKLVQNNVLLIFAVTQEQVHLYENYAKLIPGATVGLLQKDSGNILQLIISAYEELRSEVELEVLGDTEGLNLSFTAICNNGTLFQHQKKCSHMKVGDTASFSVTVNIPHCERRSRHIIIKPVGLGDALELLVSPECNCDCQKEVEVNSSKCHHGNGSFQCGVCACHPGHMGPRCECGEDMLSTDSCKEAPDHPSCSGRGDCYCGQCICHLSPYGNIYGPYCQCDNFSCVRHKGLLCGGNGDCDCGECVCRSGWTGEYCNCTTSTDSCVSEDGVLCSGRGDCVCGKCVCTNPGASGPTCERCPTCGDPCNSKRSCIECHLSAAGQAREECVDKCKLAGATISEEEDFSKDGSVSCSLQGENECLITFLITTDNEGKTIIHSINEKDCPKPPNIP
Sequence of integrin αVβ8 ectodomain (human) (P06756 31-992, chain 1 of 2): as the sequence (P06756 31-992, chain 1 of 2) above
Sequence of integrin αVβ8 ectodomain (human) (P26012 43-684, chain 2 of 2): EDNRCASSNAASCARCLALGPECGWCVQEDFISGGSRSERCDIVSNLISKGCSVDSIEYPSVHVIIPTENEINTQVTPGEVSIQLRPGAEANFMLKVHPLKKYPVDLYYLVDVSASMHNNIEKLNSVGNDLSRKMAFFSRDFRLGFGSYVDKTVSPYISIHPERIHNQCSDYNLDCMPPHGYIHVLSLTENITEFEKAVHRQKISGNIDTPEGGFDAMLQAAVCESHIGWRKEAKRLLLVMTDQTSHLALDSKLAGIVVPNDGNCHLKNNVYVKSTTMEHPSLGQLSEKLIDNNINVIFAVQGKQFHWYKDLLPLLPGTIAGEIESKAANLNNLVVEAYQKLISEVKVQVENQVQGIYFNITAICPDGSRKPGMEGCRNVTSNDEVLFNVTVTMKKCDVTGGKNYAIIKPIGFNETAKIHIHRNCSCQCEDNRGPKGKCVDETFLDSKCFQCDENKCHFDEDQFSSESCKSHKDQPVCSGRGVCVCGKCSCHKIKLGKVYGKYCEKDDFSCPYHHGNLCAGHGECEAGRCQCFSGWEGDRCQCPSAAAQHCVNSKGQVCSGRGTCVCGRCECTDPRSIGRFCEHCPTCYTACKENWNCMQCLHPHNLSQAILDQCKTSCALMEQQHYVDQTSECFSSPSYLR

Turning to {FITC-Ahx}-GRGDLGRLKK [FITC-labeled aminocaproic acid-GRGDLGRLKK peptide], the binding result in assay [1] and in assay [2] was “binds” in each case.

Source of the values: paper PMC11188837 (mAbs, 2024).
